Assay results taken from article PMC10234635.

Target: recombinant mouse CD47 antigen (mouse) (UniProt Q61735)
Experiment: SPR

UniProt Q61735, sequence (Q61735 19-303): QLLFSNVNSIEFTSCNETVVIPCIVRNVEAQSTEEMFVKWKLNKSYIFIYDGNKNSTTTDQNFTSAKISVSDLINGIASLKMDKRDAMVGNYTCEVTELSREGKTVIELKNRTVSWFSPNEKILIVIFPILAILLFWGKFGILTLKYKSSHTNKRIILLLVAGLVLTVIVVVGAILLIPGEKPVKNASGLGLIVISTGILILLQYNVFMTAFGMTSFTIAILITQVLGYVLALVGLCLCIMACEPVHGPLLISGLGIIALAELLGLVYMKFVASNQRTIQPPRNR

B1: anti–CTLA-4×SIRPα heterodimer (bispecific antibody, V domains shown)
VH: QVKLEESGPGLVNPSQSLSLSCSVTGYSITSGYGWNWIRQFPGQKVEWMGFIYYEGSTYYNPSIKSRISITRDTSKNQFFLQVNSVTTEDTATYYCARQTGYFDYWGQGTMVTVSS
VL: DVMMTQSPSSMSVSAGEKATISCKSSQSLFNSNAKTNYLNWYMQKPGQSPKLLTYYASTRHTGVPDRFRGSGSGTDFTLTISSVQDEDQAFYYCQQWYDYPYTFGAGTKLEIK
fold lower affinity than its affinity to CTLA-4: 10 fold | fold reduction in affinity against SIRPα-Fc: 5 fold
